# Data: the RNAGym collection of RNA variant scans (doi:10.7554/elife.80360)
# B1: Hairpin Ribozyme (parent)
# chain: GUCCUCUUUCACGUGCGCGUGAAAGAGAGAAGUGAACCAGAGAAACACACGUUGUGGUAUAUUACCUGGUA
# Variants of: B1
# Assay: self-cleavage, relative activity (ratio to wild type); higher = more cleavage; co-transcriptional
row,Variant,self-cleavage
1,GUCCUCUAUCACGUGCGCGUGAAAGAGAGCAGUGAACCAGAGAAACACACGUUGUGGUAUAUUACCUGGUA [U8A A30C],0.172
2,GUCCUCUAUCACGUGCGCGUGAAAGAGAGAAGUGCACCAGAGAAACACACGUUGUGGUAUAUUACCUGGUA [U8A A35C],0.911
3,GUCCUCUAUCACGUGCGCGUGAAAGAGAGAAGUGAACCGGAGAAACACACGUUGUGGUAUAUUACCUGGUA [U8A A39G],0.279
4,GUCCUCUAUCACGUGCGCGUGAAAGAGAGAAGUGAACCUGAGAAACACACGUUGUGGUAUAUUACCUGGUA [U8A A39U],0.334
5,GUCCUCUAUCACGUGCGCGUGAAAGAGAGAAGUGAACCAGGGAAACACACGUUGUGGUAUAUUACCUGGUA [U8A A41G],0.615
6,GUCCUCUAUCACGUGCGCGUGAAAGAGAGAAGUGAACCAGAGUAACACACGUUGUGGUAUAUUACCUGGUA [U8A A43U],0.106
7,GUCCUCUAUCACGUGCGCGUGAAAGAGAGAAGUGAACCAGAGAAACCCACGUUGUGGUAUAUUACCUGGUA [U8A A47C],0.295
8,GUCCUCUAUCACGUGCGCGUGAAAGAGAGAAGUGAACCAGAGAAACUCACGUUGUGGUAUAUUACCUGGUA [U8A A47U],0.16
9,GUCCUCUAUCACGUGCGCGUGAAAGAGAGAAGUGAACCAGAGAAACACACGUUGUGGUUUAUUACCUGGUA [U8A A59U],0.165
10,GUCCUCUAUCACGUGCGCGUGAAAGAGAGAAGUGAACCAGAGAAACACACGUUGUGGUAUCUUACCUGGUA [U8A A61C],0.165
11,GUCCUCUAUCACGUGCGCGUGAAAGAGAGAAGUGAACCAGAGAAACACACGUUGUGGUAUAUUGCCUGGUA [U8A A64G],0.503
12,GUCCUCUAUCACGUGCGCGUGAAAGAGAGAAGUGAACCAGAGAAACACACGUUGUGGUAUAUUACCUGGUG [U8A A71G],0.699
13,GUCCUCUAUCAAGUGCGCGUGAAAGAGAGAAGUGAACCAGAGAAACACACGUUGUGGUAUAUUACCUGGUA [U8A C12A],0.606
14,GUCCUCUAUCACGUGAGCGUGAAAGAGAGAAGUGAACCAGAGAAACACACGUUGUGGUAUAUUACCUGGUA [U8A C16A],0.876
15,GUCCUCUAUCACGUGGGCGUGAAAGAGAGAAGUGAACCAGAGAAACACACGUUGUGGUAUAUUACCUGGUA [U8A C16G],0.632
16,GUCCUCUAUCACGUGCGAGUGAAAGAGAGAAGUGAACCAGAGAAACACACGUUGUGGUAUAUUACCUGGUA [U8A C18A],0.872
17,GUCCUCUAUCACGUGCGCGUGAAAGAGAGAAGUGAACAAGAGAAACACACGUUGUGGUAUAUUACCUGGUA [U8A C38A],0.15
18,GUCCUCUAUCACGUGCGCGUGAAAGAGAGAAGUGAACGAGAGAAACACACGUUGUGGUAUAUUACCUGGUA [U8A C38G],0.102
19,GUCCUCUAUCACGUGCGCGUGAAAGAGAGAAGUGAACCAGAGAAAAACACGUUGUGGUAUAUUACCUGGUA [U8A C46A],0.133
20,GUCCUCUAUCACGUGCGCGUGAAAGAGAGAAGUGAACCAGAGAAAUACACGUUGUGGUAUAUUACCUGGUA [U8A C46U],0.0775
21,GUCCUCUAUCACGUACGCGUGAAAGAGAGAAGUGAACCAGAGAAACACACGUUGUGGUAUAUUACCUGGUA [U8A G15A],0.826
22,GUCCUCUAUCACGUGCACGUGAAAGAGAGAAGUGAACCAGAGAAACACACGUUGUGGUAUAUUACCUGGUA [U8A G17A],0.742
23,GUCCUCUAUCACGUGCGCUUGAAAGAGAGAAGUGAACCAGAGAAACACACGUUGUGGUAUAUUACCUGGUA [U8A G19U],0.661
24,GUCCUCUAUCACGUGCGCGUUAAAGAGAGAAGUGAACCAGAGAAACACACGUUGUGGUAUAUUACCUGGUA [U8A G21U],0.691
25,GUCCUCUAUCACGUGCGCGUGAAACAGAGAAGUGAACCAGAGAAACACACGUUGUGGUAUAUUACCUGGUA [U8A G25C],0.155
26,GUCCUCUAUCACGUGCGCGUGAAAGACAGAAGUGAACCAGAGAAACACACGUUGUGGUAUAUUACCUGGUA [U8A G27C],0.186

row,Variant,self-cleavage
1,GUCCUCUAUCACGUGCGCGUGAAAGAGACAAGUGAACCAGAGAAACACACGUUGUGGUAUAUUACCUGGUA [U8A G29C],0.104
2,GUCCUCUAUCACGUGCGCGUGAAAGAGAUAAGUGAACCAGAGAAACACACGUUGUGGUAUAUUACCUGGUA [U8A G29U],0.0651
3,GUCCUCUAUCACGUGCGCGUGAAAGAGAGAACUGAACCAGAGAAACACACGUUGUGGUAUAUUACCUGGUA [U8A G32C],0.111
4,GUCCUCUAUCACGUGCGCGUGAAAGAGAGAAGUCAACCAGAGAAACACACGUUGUGGUAUAUUACCUGGUA [U8A G34C],0.902
5,GUCCUCUAUCACGUGCGCGUGAAAGAGAGAAGUUAACCAGAGAAACACACGUUGUGGUAUAUUACCUGGUA [U8A G34U],1.05
6,GUCCUCUAUCACGUGCGCGUGAAAGAGAGAAGUGAACCAUAGAAACACACGUUGUGGUAUAUUACCUGGUA [U8A G40U],0.109
7,GUCCUCUAUCACGUGCGCGUGAAAGAGAGAAGUGAACCAGACAAACACACGUUGUGGUAUAUUACCUGGUA [U8A G42C],0.147
8,GUCCUCUAUCACGUGCGCGUGAAAGAGAGAAGUGAACCAGAUAAACACACGUUGUGGUAUAUUACCUGGUA [U8A G42U],0.261
9,GUCCUCUAUCACGUGCGCGUGAAAGAGAGAAGUGAACCAGAGAAACACACAUUGUGGUAUAUUACCUGGUA [U8A G51A],0.749
10,GUCCUCUAUCACGUGCGCGUGAAAGAGAGAAGUGAACCAGAGAAACACACUUUGUGGUAUAUUACCUGGUA [U8A G51U],0.92
11,GUCCUCUAUCACGUGCGCGUGAAAGAGAGAAGUGAACCAGAGAAACACACGUUAUGGUAUAUUACCUGGUA [U8A G54A],0.396
12,GUCCUCUAUCACGUGCGCGUGAAAGAGAGAAGUGAACCAGAGAAACACACGUUGUAGUAUAUUACCUGGUA [U8A G56A],0.158
13,GUCCUCUAUCACGUGCGCGUGAAAGAGAGAAGUGAACCAGAGAAACACACGUUGUGAUAUAUUACCUGGUA [U8A G57A],0.196
14,GUCCUCUAUCACGUGCGCGUGAAAGAGAGAAGUGAACCAGAGAAACACACGUUGUGCUAUAUUACCUGGUA [U8A G57C],0.0778
15,GUCCUCUAUCACGUGCGCGUGAAAGAGAGAAGUGAACCAGAGAAACACACGUUGUGUUAUAUUACCUGGUA [U8A G57U],0.267
16,GUCCUCUAUCACGUGCGCGUGAAAGAGAGAAGUGAACCAGAGAAACACACGUUGUGGUAUAUUACCUAGUA [U8A G68A],0.179
17,GUCCUCUAACACGUGCGCGUGAAAGAGAGAAGUGAACCAGAGAAACACACGUUGUGGUAUAUUACCUGGUA [U8A U9A],0.793
18,GUCCUCUAGCACGUGCGCGUGAAAGAGAGAAGUGAACCAGAGAAACACACGUUGUGGUAUAUUACCUGGUA [U8A U9G],0.791
19,GUCCUCUAUCACGUGCGCGUGAAAGAGAGAAGAGAACCAGAGAAACACACGUUGUGGUAUAUUACCUGGUA [U8A U33A],0.0975
20,GUCCUCUAUCACGUGCGCGUGAAAGAGAGAAGGGAACCAGAGAAACACACGUUGUGGUAUAUUACCUGGUA [U8A U33G],0.0531
21,GUCCUCUAUCACGUGCGCGUGAAAGAGAGAAGUGAACCAGAGAAACACACGCUGUGGUAUAUUACCUGGUA [U8A U52C],0.647
22,GUCCUCUAUCACGUGCGCGUGAAAGAGAGAAGUGAACCAGAGAAACACACGUCGUGGUAUAUUACCUGGUA [U8A U53C],0.778
23,GUCCUCUAUCACGUGCGCGUGAAAGAGAGAAGUGAACCAGAGAAACACACGUUGUGGAAUAUUACCUGGUA [U8A U58A],0.561
24,GUCCUCUAUCACGUGCGCGUGAAAGAGAGAAGUGAACCAGAGAAACACACGUUGUGGCAUAUUACCUGGUA [U8A U58C],0.913
25,GUCCUCUAUCACGUGCGCGUGAAAGAGAGAAGUGAACCAGAGAAACACACGUUGUGGGAUAUUACCUGGUA [U8A U58G],0.515
26,GUCCUCUAUCACGUGCGCGUGAAAGAGAGAAGUGAACCAGAGAAACACACGUUGUGGUACAUUACCUGGUA [U8A U60C],0.89

row,Variant,self-cleavage
1,GUCCUCUAUCACGUGCGCGUGAAAGAGAGAAGUGAACCAGAGAAACACACGUUGUGGUAUAAUACCUGGUA [U8A U62A],0.105
2,GUCCUCUAUCACGUGCGCGUGAAAGAGAGAAGUGAACCAGAGAAACACACGUUGUGGUAUAUCACCUGGUA [U8A U63C],0.218
3,GUCCUCUCUCACGUGCGCGUGAAAGAGAGAAGUGAACCAGAGAAACACACGUUGUGGUAUAUUACCUGGUA [U8C],0.739
4,GUCCUCUCUCCCGUGCGCGUGAAAGAGAGAAGUGAACCAGAGAAACACACGUUGUGGUAUAUUACCUGGUA [U8C A11C],0.289
5,GUCCUCUCUCACGUGCGCGUGCAAGAGAGAAGUGAACCAGAGAAACACACGUUGUGGUAUAUUACCUGGUA [U8C A22C],0.209
6,GUCCUCUCUCACGUGCGCGUGGAAGAGAGAAGUGAACCAGAGAAACACACGUUGUGGUAUAUUACCUGGUA [U8C A22G],0.515
7,GUCCUCUCUCACGUGCGCGUGAACGAGAGAAGUGAACCAGAGAAACACACGUUGUGGUAUAUUACCUGGUA [U8C A24C],0.196
8,GUCCUCUCUCACGUGCGCGUGAAGGAGAGAAGUGAACCAGAGAAACACACGUUGUGGUAUAUUACCUGGUA [U8C A24G],0.502
9,GUCCUCUCUCACGUGCGCGUGAAAGUGAGAAGUGAACCAGAGAAACACACGUUGUGGUAUAUUACCUGGUA [U8C A26U],0.336
10,GUCCUCUCUCACGUGCGCGUGAAAGAGGGAAGUGAACCAGAGAAACACACGUUGUGGUAUAUUACCUGGUA [U8C A28G],1.07
11,GUCCUCUCUCACGUGCGCGUGAAAGAGAGCAGUGAACCAGAGAAACACACGUUGUGGUAUAUUACCUGGUA [U8C A30C],0.201
12,GUCCUCUCUCACGUGCGCGUGAAAGAGAGACGUGAACCAGAGAAACACACGUUGUGGUAUAUUACCUGGUA [U8C A31C],0.0859
13,GUCCUCUCUCACGUGCGCGUGAAAGAGAGAGGUGAACCAGAGAAACACACGUUGUGGUAUAUUACCUGGUA [U8C A31G],0.241
14,GUCCUCUCUCACGUGCGCGUGAAAGAGAGAUGUGAACCAGAGAAACACACGUUGUGGUAUAUUACCUGGUA [U8C A31U],0.14
15,GUCCUCUCUCACGUGCGCGUGAAAGAGAGAAGUGGACCAGAGAAACACACGUUGUGGUAUAUUACCUGGUA [U8C A35G],0.385
16,GUCCUCUCUCACGUGCGCGUGAAAGAGAGAAGUGAGCCAGAGAAACACACGUUGUGGUAUAUUACCUGGUA [U8C A36G],0.928
17,GUCCUCUCUCACGUGCGCGUGAAAGAGAGAAGUGAACCGGAGAAACACACGUUGUGGUAUAUUACCUGGUA [U8C A39G],0.201
18,GUCCUCUCUCACGUGCGCGUGAAAGAGAGAAGUGAACCUGAGAAACACACGUUGUGGUAUAUUACCUGGUA [U8C A39U],0.25
19,GUCCUCUCUCACGUGCGCGUGAAAGAGAGAAGUGAACCAGCGAAACACACGUUGUGGUAUAUUACCUGGUA [U8C A41C],0.72
20,GUCCUCUCUCACGUGCGCGUGAAAGAGAGAAGUGAACCAGGGAAACACACGUUGUGGUAUAUUACCUGGUA [U8C A41G],0.458
21,GUCCUCUCUCACGUGCGCGUGAAAGAGAGAAGUGAACCAGAGGAACACACGUUGUGGUAUAUUACCUGGUA [U8C A43G],0.16
22,GUCCUCUCUCACGUGCGCGUGAAAGAGAGAAGUGAACCAGAGUAACACACGUUGUGGUAUAUUACCUGGUA [U8C A43U],0.241
23,GUCCUCUCUCACGUGCGCGUGAAAGAGAGAAGUGAACCAGAGAAACCCACGUUGUGGUAUAUUACCUGGUA [U8C A47C],0.131
24,GUCCUCUCUCACGUGCGCGUGAAAGAGAGAAGUGAACCAGAGAAACACACGUUGUGGUUUAUUACCUGGUA [U8C A59U],0.116
